{"source": "the DeepSol protein solubility set"}
{"assay": "soluble on expression in E. coli; label from the status in PepcDB or PDB records"}
{"sequence": "EGGDFVVGMVTDSGDIDDKSFNQQVWEGISRFAQENNAKCKYVTASTDAEYVPSLSAFADENMGLVVACGSFLVEAVIETSARFPKQKFLVIDAVVQDRDNVVSAVFGQNEGSFLVGVAAALKAKEAGKSAVGFIVGMELGMMPLFEAGFEAGVKAVDPDIQVVVEVANTFSDPQKGQALAAKLYDSGVNVIFQVAGGTGNGVIKEARDRRLNGQDVWVIGVDRDQYMDGVYDGSKSVVLTSMVKRADVAAERISKMAYDGSFPGGQSIMFGLEDKAVGIPEENPNLSSAVMEKIRSFEEKIVSKEIVVPVRSARMMN", "soluble on expression in E. coli": "soluble"}
{"sequence": "KILDACCGSRMFWFDKQNDQVLFMDNRKHYEKLESGHIVAVNPNIVADFRKMPFDDNSFYHVVFDPPHLLRAGSNSWLAKKYGKLNEQTWKEDIQKGFSECMRVLKPNGTLVFKWNEDQIKLSEILSIIDYEPLYGNKRAKTHWLVFMKESEENESNG", "soluble on expression in E. coli": "soluble"}
{"sequence": "MGSDKIHHHHHHMIVTEHSTRPLGEEGLANYVQRLRGQLSLTQKELSFKAGIHIQTIRKIEGGQTNRLNQKAKGGLAAALGIPPEYLDAAAKKVSPETITTLKFCPKCWTPGTTPDQMWTDLRSKYCFACGTALRNRCVSCNEPIMSLKFKFCPYCGANYKQNQTTS", "soluble on expression in E. coli": "not soluble"}
{"sequence": "MGTFTATYFLKNAFWDKRGLWTATLAVAYFARCWESAGYNKAEMMKGHSKMYADRLKQLPAHTDAWKY", "soluble on expression in E. coli": "not soluble"}
{"sequence": "QMSLEGTEKASWLGEQPQFWSKTQVLDWISYQVEKNKYDASAIDFSRCDMDGATLCNCALEELRLVFGPLGDQLHAQLRDLTSSS", "soluble on expression in E. coli": "soluble"}
{"sequence": "MGSDKIHHHHHHMHSLQRKVLRTICPDQKGLIARITNICYKHELNIVQNNEFVDHRTGRFFMRTELEGIFNDSTLLADLDSALPEGSVRELNPAGRRRIVILVTKEAHCLGDLLMKANYGGLDVEIAAVIGNHDTLRSLVERFDIPFELVSHEGLTRNEHDQKMADAIDAYQPDYVVLAKYMRVLTPEFVARFPNKIINIHHSFLPAFIGARPYHQAYERGVKIIGATAHYVNDNLDEGPIIMQDVIHVDHTYTAEDMMRAGRDVEKNVLSRALYKVLAQRVFVYGNRTIIL", "soluble on expression in E. coli": "not soluble"}
{"sequence": "MNPFDMLSPGYQDIWLRLQSERLLLEKRISAKEGELKNLMQFVQNPPFLNFPQYMLPQGPLGAQNQ", "soluble on expression in E. coli": "not soluble"}
{"sequence": "MLIHMKSRKMNLNKLEDGGSWFSRLKQFLQGEPQNQEELVSLLRDAQIRSLINSETLAMIEGAILFSKMRVRDIMLPKNQMVCINKDDDFKHIISIVTQTGHSRFPVTGENSDEVVGILHAKDLLKYQPENMESFDLLDICRQVTFVPESRRLDSLLSEFRSNRNHMAIVVDEYGEVSGFVTIEDIIEQIIGDIEDEFDIDEDAYIKTHEGHCYIIKAHTPIEEFNEQLNADFSDETYDTIGGIVLNKFGYLPQRGEVIIIDDFEFKVLNADSRRIKLLECLDKRSPEKLNSTVEG", "soluble on expression in E. coli": "not soluble"}
{"sequence": "MGSDKIHHHHHHMDENEFDNQRENKAVARVIISFLKYEEYALKEIYNLRVKKWASISDRQKDMVPNYTKYLANLKAAIIENGKFFRSVAEYALQSISFEPGEIVQPNDLDMSKTCSLLTQVYREWSAEAISERNCLNSRLVPFLKTLSPPKADILIPGCGTGRLLVDLSRMGYNCEGNEFSYHMLLVSQYMLNAGLLQNQIIIYPFIHCFSHWKKIEDQLSPIKVPDIEAWSSNKGMGSMSICAGSFVDCYGRNQGTKISSHYTFSRRMQLSRAKAENSKDVVVTNFFIDTGSNILDYLDTIGHVLKPGGIWCNFGPLLYHFENDHGVETTYEVNPYSGFQDKINDYTPLMGLELSSDDIISIATNHLDFELIRRESGILCGYGRYAGPESCAMPGYMCHYWILKSNPTNES", "soluble on expression in E. coli": "not soluble"}
{"sequence": "MVVNVFISAVTTDTLSRKEAVAWVNNLLKSHFTKVEEMASGAAYCQLTHLLFNAINLKKVKFNPRSEPDVLNNWKVLTTTWKDLGIDKPVDVEKMKKAKFQDNMEFLQWFYKFYNANLTTEPEEYDAVGARFGEDLPALKGSTGSRPVAAPARPVAAAPPKPRPAAPAVAAPAVKASVPPTVRNGTRPAPATSAGTRRADPSASEELLKQEIEKHKAASDEWETTAKEMETEREYYYSILQRVESLANEAEESGSSTVDVAALKTILYAGNEDTEQVDEIENEHLVESLQANLDDTETF", "soluble on expression in E. coli": "soluble"}
{"sequence": "MQAQTVVHPSIKTKTTFAIVVDQKSYDEAKSEIDAYRTSIEKEGLGTYLLIDDWKRPEPIREQLVKLHENEKTPLEGCVFIGDIPIPMIRDAHHLSSAFKRSPKANWQKSSVPSDRYYDDFGLKFDYIKQDSLIPDYHYMTLRADSKQYISPDIYSARIRPLHLEGENRYQMLRDYLKKAVAEKAKQNAFDQLTMARGHGYNSEDPLAWSGEQIALREQLPQIFKSGNTVKFYDFNMRYPMKPLYLNEIQREGLDVMLFHHHGGPTMQYINGYENGSGINLSIENAKIFLRSKVPSYAKKHGREAAIKEYAKQYGVPESWCAEAFDEEKIKSDSIVNRNMDIYTEDIRLLTPNARFILFDACFNGSFHLDDNIVGSYIFNKGKTIATMGCTVNTIQDKWPDEFLGLLAAGMRIGQFTRFTCFLENHLIGDPTFHFTNNAGLDMDINQALVAQEGNVTFWKKQLNSPMADMQAMALRQLSMANYSGLVELLKKSYHESNYFVVRLEALRLLALNYPTEVADVLQTAMNDSYELIRRYAVEYVEKNCNPELLPAWIESYLLRGHENRHRFRIFSAINTFDHDMALNELKKQAADWSFYDSSYVNELLEYLPRQKKGLERDFALIDSPESTTKQIQSEISRFRNKPIAKAIEPLLNIIKNESQEEELRILAAETLGWYNLYYNKADIIKELNTFRTSNQKLMNEVTKTINRLKSQNR", "soluble on expression in E. coli": "not soluble"}
{"sequence": "MGSSHHHHHHSSGLVPRGSHMSSEFIEAGAADRVRILSEALPYLQQFAGRTVVVKYGGAAMKQEELKEAVMRDIVFLACVGMRPVVVHGGGPEINAWLGRVGIEPQFHNGLRVTDADTMEVVEMVLVGRVNKDIVSRINTTGGRAVGFCGTDGRLVLARPHDQEGIGFVGEVNSVNSEVIEPLLERGYIPVISSVAADENGQSFNINADTVAGEIAAALNAEKLILLTDTRGILEDPKRPESLIPRLNIPQSRELIAQGIVGGGMIPKVDCCIRSLAQGVRAAHIIDGRIPHALLLEIFTDAGIGTMIVGSGYHEAHQPWQ", "soluble on expression in E. coli": "soluble"}
{"sequence": "MEKRITTPLTDEVVKSLRAGDKVLITGYIYTARDAAHKRMVEAIQRGEKPPIDLKGQIIYYVGPTPPKPGQVIGSAGPTTAIRMDKYVEPLLKLGLKGMIGKGYRSPQVKELLKKYKAVYFAAVGGVATLLQKHIKSSELIAYEDLGTEAIRRLYVEDFPVIVANDAFGGDVFEEGRKKYAKIDV", "soluble on expression in E. coli": "soluble"}
{"sequence": "MSLSHQQKVYIPKEARTNQYITAEIKVTDELLNQYPDYHSCYQTLSRIIFNLAEQHDLRNVHVITNDKLPVVRYHTEAYCFQTAEQILFFYNPAYHEAQNLFTADNYRARKLRIVFLATGDEIRSNSANFHTRVQEFLNELMPKLPIKDLKVKIRDHQHLSYDLFAKSKGNKETYGYKLRAIAPRYKARKCELPENVSSLTYVTVSLPLSRKLKQGLLPESATDFSPLYQHLEDNFLKAAANKQLTRLAMIANGLTPLVRNSKFEKLDSKAEVQMIGFDPNATEQQVIRRWDADNLVEAAHFTIVAGAKDCDDAGYGRFMNNVEAALKSFAAEIGLDPEREDLVTRFHQHISYQL", "soluble on expression in E. coli": "soluble"}
{"sequence": "MRITLIVLAALSFACTSCWFETGPDRFIYQLSWFCAESSCERGDDLNQFNRAETYGTDFAMSSTSASDLATSATIVVSATLGRDCRLVLDLVLFGHELDESILCFTPNGFELTVTIPDEDPETSSTWVVMAREL", "soluble on expression in E. coli": "not soluble"}
{"sequence": "MSLASGNTLTYGLVVPDISNPFFASMARALQREAFNHGRVLLLGDAGDDRQHEHDLINHLLRRQVDGLLYTSVDRHPWFDLIRNSGTPCVMIDTIDSHAGISAIRVNERDAACQATRHLLQHGYRELGIFVGPLTMLNAQDRLNGWRDALIEAGITPREEWIFEAPYTRKGGYQASQKMLQGPCPRAIFTSNEQQALGCLSALAEHQLRVPDDLAIICFNGTQQSEFSVPPLSAVEQPIDAMARQAIAMLATGTAQPELHEFAFQLHIRRSEGHHHHHH", "soluble on expression in E. coli": "soluble"}
{"sequence": "MKVHNDFTLYWRVFPSGKKVVYYYAYDESGKRLMGRSTGETNLTSARVKCNKLLKEGELVPNKNHVPTFAEYAEGWWEWETCAYLKKRRKRYSLTQTYADNNKKNLKNHLLPFFGNMPMNKITKIEVEDFFDALIEKEYQNTSINGFYGTLKTMLIEAVERNIIPKDPTDKMGRLVNDRRAIKIITPEEFKKLFVGDWRRVWESDRLSYTANKLAALTGMRASEVVGLKGSFVYDEHIYLCMQYDDYGYRPTKTKDKHNIPLTSDMINELKELKRMNGDGFVFSLDGGATPICRNTVYKHFHRALRNIGITEDEISERHLHLHAWRHFFNTEMLKGGLTVTQAQAVTGHKSERMTEWYCHFDPTEFAKAKEVQEALLRPAQKKAAKEEKAGAKTSGNKDKAVKVIPFPRKENKTAGEETQASLILPLPIFKAPAGLRRELLFLPFQHFPFFFLNCRFVPFLSATGHGIFKAGMGESMEEYLTIFEVAELTKYTVGTLRKFVQKRRVAFHKWGRSLRFRRAEIELWMKMGCGKAVYLPADGDGQTKASAMEIGAES", "soluble on expression in E. coli": "not soluble"}
{"sequence": "MVDSDDDGDRRRDKFARERRDEDYRRGGGGFNRYDNKRPGGRRDDYQVKRSRGDDADDSFDPVSRSGNGSDLPTESDSIYSGPLQTFKKFLTSQEDDISEEDAIKKYNEYKTEHRKHQLERFFRAHKDEEWFRLKYKPDDAKKLREAHLENVQKRLQVFNELKEQGQFNKFSLDFGDAEAIIRMLDSVVVKLENGTEDELKAVLAQKLEDESLADIKKDENGNGTEQPKEEPEVKQESGATEELEEGAIEDGTEKSSNKVNIHRTCSVFLRNIPPGLTYEELEGLCKKSPGFLRLALTDGIAERKFYRRGWATFKRDINIKEICWALNAHRLRETDLNAIINRDITRRVRTNNGIASHKQVAINDLKLAVKLTVLYDKKIGLFNAADEADADREMDIRMGVDLVAASTNPLIKEVKSLVPHDVLNDISEEEAELLGVSNGGEAPAEKIRFERDDNILKALDLLIVYLRIVHSIDFYNHGHYAQEDSMPNRCGLIHVRGQPPSGVSITTDEDGALVVPQKFVNDFISGFNSRIEKGLIEKQYVSEEELEKMGKKDGEKEVEAFIQKNTVELAKDKWLCPLSGKKFKGPEFIRKHLQSKHEDKLEEARAEADFFNNYLADAQRPVDCEPKQAPRDDHRGGGGGERGGYGRERDDDRGPGGGGRNSFGGGGYDRRPQFPPRHSLGGRGGGGRYFEDAPRRQPVSYRDLDAPDDIP", "soluble on expression in E. coli": "not soluble"}
{"sequence": "SLNEVQQAVDMQRRQLLQRLGKDFDPSMLDDKLLKEAALKGLIERTLLLQAAKDDKFAFSDQALDQLILQTPEFQVDGKFNADRFDQVIRQMNYSRMQFRQMLGQEMLIGQLRAGLAGTGFVTDNELQSFARLEKQTRDFATLAIKADASKSSVSDDEVKAFYEGHKSEFMTPEQVVVEYVELKKSSFFDQVKVKQEDLEALYQKEIANLSEQRDAAHILIEVNDKVGDEQAKAKIDEIKARLAKGEDFAALAKEFSQDIGSAATGGDLGYAGRGVYDPAFEEALYALKQGEVSAPVKTPYGYHLIKLLGVQAPEVPSLESLKPKLEDELKKQMVEQRFVEATKDLESSAYEAADLSQPAQEMGLKVQTSQPFGRSGGDGIAANRQIVQTAFSAEVLEEAANSGAIELDPDTVVVLRVKEHNKPKEQPLEQVAANIRERLAAEKAAEEAQKRGEALIAELREGRTSSAAGESWKVVEAASRGHEGVDPKLLQAVFRMQRPEAKDKPSFSGVTLANGDYVVIRLNGVSEPEEAISDDEKAMYRRFLASRSGQADFAAFRRQLQD", "soluble on expression in E. coli": "not soluble"}
{"sequence": "IALGGGAAKGFAHIGVLKMLEANGLAPSVVAGTSAGSVVGALYASGMDSFKIQTKAVAMDESNIRDLRFFSGGLVQGQKLQNYVNELVGKRPIEKLNMPFGAIATRLEDGQRTMFVRGNVGEAVRASCSIPGVFEPVTIGAYHYVDGGITSPVPV", "soluble on expression in E. coli": "not soluble"}
